Measurements published in publication PMC10941548, “Tau induces inflammasome activation and microgliosis through acetylating NLRP3” (Clinical and Translational Medicine, 2024).
One block for each binder: values may come before it.

Key:
[1] = molecular target: T1, purified human WT full-length Tau protein (Tau441), His-tagged (human, UniProt P10636-8 1-441); test: co-IP; competition: TNB peptide (0, 25, 50, 100, 200 µM) and purified Tau441 added to LPS-pretreated BV-2 cells; loss of Tau in the anti-NLRP3 immunoprecipitate; conditions: both partners purified
T1 construct: also called purified Tau441 protein; recombinant Tau441; source: E. coli ROSETTA 2(DE3)PLYSS, purified (Ni-NTA) by HUABIO
T1 sequence (P10636 other isoform, or with tags, fused parts or gaps): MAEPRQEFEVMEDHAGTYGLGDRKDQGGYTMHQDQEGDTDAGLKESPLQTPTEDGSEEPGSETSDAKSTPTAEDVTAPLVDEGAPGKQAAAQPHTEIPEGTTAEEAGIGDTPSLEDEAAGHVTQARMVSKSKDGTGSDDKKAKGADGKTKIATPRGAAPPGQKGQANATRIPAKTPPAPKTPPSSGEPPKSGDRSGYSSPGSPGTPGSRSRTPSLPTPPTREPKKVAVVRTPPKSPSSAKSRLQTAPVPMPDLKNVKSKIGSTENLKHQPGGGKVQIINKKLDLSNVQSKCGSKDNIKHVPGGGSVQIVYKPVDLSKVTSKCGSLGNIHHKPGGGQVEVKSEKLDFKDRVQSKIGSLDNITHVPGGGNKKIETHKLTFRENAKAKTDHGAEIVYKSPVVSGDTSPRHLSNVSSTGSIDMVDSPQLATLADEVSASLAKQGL

[2] = molecular target: T1, purified human WT full-length Tau …; test: pull-down; Flag-NLRP3 (WT or mutant) immunoprecipitated from HEK-293T with anti-Flag on protein A/G agarose beads; incubated with 50 nM purified Tau441 and 1 mM acetyl CoA at 37°C for 2 h in 50 mM HEPES pH 8.0, 10 mM sodium butyrate, 1 mM DTT, 10% glycerol; blot with anti-Tau5 and anti-NLRP3; conditions: both partners purified

- binding result [1]: binds
B1: Tau–NLRP3-binding blocking (TNB) peptide (peptide)
peptide: LEDLEDVDLKKFKMHLEDYPP
notes: stretch of NLRP3 around K21/K22/K24 in the PYD domain; 2574.89 Da; An FITC-labelled form (FITC-TNB) was used only for microscopy; also called peptide TNB; source: synthetic peptide (Bioyeargene Biosciences, Fmoc solid-phase, purity 95.93%)

- binding result [2]: binds
B2: Flag-mouse NLRP3 (GV362-EGFP-FLAG-mouse NLRP3), wild type (natural protein, UniProt Q8R4B8 1-1033, looked up)
chain: MTSVRCKLAQYLEDLEDVDLKKFKMHLEDYPPEKGCIPVPRGQMEKADHLDLATLMIDFNGEEKAWAMAVWIFAAINRRDLWEKAKKDQPEWNDTCTSHSSMVCQEDSLEEEWMGLLGYLSRISICKKKKDYCKMYRRHVRSRFYSIKDRNARLGESVDLNSRYTQLQLVKEHPSKQEREHELLTIGRTKMRDSPMSSLKLELLFEPEDGHSEPVHTVVFQGAAGIGKTILARKIMLDWALGKLFKDKFDYLFFIHCREVSLRTPRSLADLIVSCWPDPNPPVCKILRKPSRILFLMDGFDELQGAFDEHIGEVCTDWQKAVRGDILLSSLIRKKLLPKASLLITTRPVALEKLQHLLDHPRHVEILGFSEAKRKEYFFKYFSNELQAREAFRLIQENEVLFTMCFIPLVCWIVCTGLKQQMETGKSLAQTSKTTTAVYVFFLSSLLQSRGGIEEHLFSDYLQGLCSLAADGIWNQKILFEECDLRKHGLQKTDVSAFLRMNVFQKEVDCERFYSFSHMTFQEFFAAMYYLLEEEAEGETVRKGPGGCSDLLNRDVKVLLENYGKFEKGYLIFVVRFLFGLVNQERTSYLEKKLSCKISQQVRLELLKWIEVKAKAKKLQWQPSQLELFYCLYEMQEEDFVQSAMDHFPKIEINLSTRMDHVVSSFCIKNCHRVKTLSLGFFHNSPKEEEEERRGGRPLDQVQCVFPDTHVACSSRLVNCCLTSSFCRGLFSSLSTNRSLTELDLSDNTLGDPGMRVLCEALQHPGCNIQRLWLGRCGLSHQCCFDISSVLSSSQKLVELDLSDNALGDFGIRLLCVGLKHLLCNLQKLWLVSCCLTSACCQDLALVLSSNHSLTRLYIGENALGDSGVQVLCEKMKDPQCNLQKLGLVNSGLTSICCSALTSVLKTNQNFTHLYLRSNALGDTGLRLLCEGLLHPDCKLQMLELDNCSLTSHSCWNLSTILTHNHSLRKLNLGNNDLGDLCVVTLCEVLKQQGCLLQSLQLGEMYLNRETKRALEALQEEKPELTIVFEISW
notes: NOD-like receptor pyrin domain containing 3 (NLRP3), mouse, fusion with Flag; Plasmid from Genechem; also called GV362-EGFP-Flag-NLRP3; NLRP3-protein A/G agarose beads complexes; source: HEK-293T, transfected 48 h, immunoprecipitated with anti-Flag antibody on protein A/G agarose beads
